B1: PN42558 (TCR, V domains shown)
V domain 1: GIQVEQSPPDLILQEGANSTLRCNFSDSVNNLQWFHQNPWGQLINLFYIPSGTKQNGRLSATTVATERYSLLYISSSQTTDSGVYFCVLGGGSQGNLIFGKGTKLSVKP
V domain 2: DAGVTQSPTHLIKTRGQQVTLRCSPKSGHDTVSWYQQALGQGPQFIFQYYEEEERQRGNFPDRFSGHQFPNYSSELNVNALLLGDSALYLCASSFTDYGYTFGSGTRLTVV
B2: PN42450 (TCR, V domains shown)
V domain 1: AQRVTQPEKLLSVFKGAPVELKCNYSYSGSPELFWYVQYSRQRLQLLLRHISRESIKGFTADLNKGETSFHLKKPFAQEEDSAMYYCALGNTDKLIFGTGTRLQVFP
V domain 2: DVKVTQSSRYLVKRTGEKVFLECVQDMDHENMFWYRQDPGLGLRLIYFSYDVKMKEKGDIPEGYSVSREKKERFSLILESASTNQTSMYLCASSSPRTGWYGYTFGSGTRLTVV
B3: PN46735 (TCR, V domains shown)
V domain 1: DAKTTQPNSMESNEEEPVHLPCNHSTISGTDYIHWYRQLPSQGPEYVIHGLTSNVNNRMASLAIAEDRKSSTLILHRATLRDAAVYYCILREYMYSGGGADGLTFGKGTHLIIQP
V domain 2: DAGVTQSPTHLIKTRGQQVTLRCSPISGHKSVSWYQQVLGQGPQFIFQYYEKEERGRGNFPDRFSARQFPNYSSELNVNALLLGDSALYLCASSFQAGVNYGYTFGSGTRLTVV
notes: stained with anti-mouse TCR constant region antibody H57-597) and full-length chains were expressed on CHO cells
B4: PN46733 (TCR, V domains shown)
V domain 1: GESVGLHLPTLSVQEGDNSIINCAYSNSASDYFIWYKQESGKGPQFIIDIRSNMDKRQGQRVTVLLNKTVKHLSLQIAATQPGDSAVYFCAENNYGQNFVFGPGTRLSVLP
V domain 2: NAGVTQTPKFQVLKTGQSMTLQCAQDMNHNSMYWYRQDPGMGLRLIYYSASEGTTDKGEVPNGYNVSRLNKREFSLRLESAAPSQTSVYFCASSDWGQGVEAFFGQGTRLTVV
notes: as for B3
B5: PN46889 (TCR, V domains shown)
V domain 1: QKEVEQNSGPLSVPEGAIASLNCTYSDRGSQSFFWYRQYSGKSPELIMSIYSNGDKEDGRFTAQLNKASQYVSLLIRDSQPSDSATYLCAVNIPNSGYSTLTFGKGTMLLVSP
V domain 2: NAGVTQTPKFRVLKTGQSMTLLCAQDMNHEYMYWYRQDPGMGLRLIHYSVGEGTTAKGEVPDGYNVSRLKKQNFLLGLESAAPSQTSVYFCASSYWEGTEAFFGQGTRLTVV
notes: as for B3
B6: PN46723 (TCR, V domains shown)
V domain 1: EDQVTQSPEALRLQEGESSSLNCSYTVSGLRGLFWYRQDPGKGPEFLFTLYSAGEEKEKERLKATLTKKESFLHITAPKPEDSATYLCAVQEDGGSQGNLIFGKGTKLSVKP
V domain 2: DAGVTQSPTHLIKTRGQQVTLRCSPISGHKSVSWYQQVLGQGPQFIFQYYEKEERGRGNFPDRFSARQFPNYSSELNVNALLLGDSALYLCASSRDINEKLFFGSGTQLSVL
notes: as for B3
B7: PN46678 (TCR, V domains shown)
V domain 1: AQKVTQAQPEISVVEKEDVTLDCVYETRDTTYYLFWYKQPPSGELVFLIRRNSFDEQNEISGRYSWNFQKSTSSFNFTITASQVVDSAVYFCALSEFDRGSTLGRLYFGRGTQLTVWP
V domain 2: B6 V domain 2
notes: as for B3
B8: PN46714 (TCR, V domains shown)
V domain 1: B6 V domain 1 with E92A
V domain 2: B6 V domain 2 with R95L, E99S, K100P, F102H, S105N, Q108R, S110T, L112T
notes: as for B3
B9: PN46871 (TCR, V domains shown)
V domain 1: KQEVTQIPAALSVPEGENLVLNCSFTDSAIYNLQWFRQDPGKGLTSLLLIQSSQREQTSGRLNASLDKSSGRSTLYIAASQPGDSATYLCAVEGTTDSWGKFQFGAGTQVVVTP
V domain 2: AAGVIQSPRHLIKEKRETATLKCYPIPRHDTVYWYQQGPGQDPQFLISFYEKMQSDKGSIPDRFSAQQFSDYHSELNMSSLELGDSALYFCASSSQGQPQHFGDGTRLSIL
notes: as for B3
B10: PN46853 (TCR, V domains shown)
V domain 1: ILNVEQSPQSLHVQEGDSTNFTCSFPSSNFYALHWYRWETAKSPEALFVMTLNGDEKKKGRISATLNTKEGYSYLYIKGSQPEDSATYLCACGGSGNTGKLIFGQGTTLQVKP
V domain 2: B9 V domain 2
notes: as for B3
B11: PN46731 (TCR, V domains shown)
V domain 1: GENVEQHPSTLSVQEGDSAVIKCTYSDSASNYFPWYKQELGKRPQLIIDIRSNVGEKKDQRIAVTLNKTAKHFSLHITETQPEDSAVYFCAAWNYGQNFVFGPGTRLSVLP
V domain 2: B9 V domain 2 with S95L, Q96E, Q98S, P99E, Q100A, H101F, D104Q, S109T, I110V, L111V
notes: as for B3
B12: PN46909 (TCR, V domains shown)
V domain 1: AQTVTQSQPEMSVQEAETVTLSCTYDTSENNYYLFWYKQPPSRQMILVIRQEAYKQQNATENRFSVNFQKAAKSFSLKISDSQLGDTAMYFCAFDYGQNFVFGPGTRLSVLP
V domain 2: NAGVTQTPKFRILKIGQSMTLQCAQDMNHNYMYWYRQDPGMGLKLIYYSVGAGITDKGEVPNGYNVSRSTTEYFPLRLELAAPSQTSVYFCASSYGGGQTEAFFGQGTRLTVV
notes: as for B3
B13: PN46777 (TCR, V domains shown)
V domain 1: AQTVTQSQPEMSVQEAETVTLSCTYDTSENNYYLFWYKQPPSRQMILVIRQEAYKQQNATENRFSVNFQKAAKSFSLKISDSQLGDTAMYFCALMEYGNKLVFGAGTILRVKS
V domain 2: DAGITQSPRYKITETGRQVTLMCHQTWSHSYMFWYRQDLGHGLRLIYYSAAADITDKGEVPDGYVVSRSKTENFPLTLESATRSQTSVYFCASSDGTGYYGYTFGSGTRLTVV
notes: as for B3
B14: PN46738 (TCR, V domains shown)
V domain 1: AQTVTQSQPEMSVQEAETVTLSCTYDTSENNYYLFWYKQPPSRQMILVIRQEAYKQQNATENRFSVNFQKAAKSFSLKISDSQLGDTAMYFCAFGMYSGGGADGLTFGKGTHLIIQP
V domain 2: B13 V domain 2
notes: as for B3
B15: PN46797 (TCR, V domains shown)
V domain 1: B13 V domain 1 with G98E
V domain 2: B13 V domain 2
notes: as for B3
B16: PN46883 (TCR, V domains shown)
V domain 1: AQKVTQAQTEISVVEKEDVTLDCVYETRDTTYYLFWYKQPPSGELVFLIRRNSFDEQNEISGRYSWNFQKSTSSFNFTITASQVVDSAVYFCALSVSSYNTDKLIFGTGTRLQVFP
V domain 2: NAGVMQNPRHLVRRRGQEARLRCSPMKGHSHVYWYRQLPEEGLKFMVYLQKENIIDESGMPKERFSAEFPKEGPSILRIQQVVRGDSAAYFCASSHRDDTEAFFGQGTRLTVV
notes: as for B3
B17: PN46857 (TCR, V domains shown)
V domain 1: AQKVTQATREISVVEKEDVTLDCVYETRDTTYYLFWYKQPPSGELVFLIRRNSFDEQNEISGRYSWNFQKSTSSFNFTITASQVVDSAVYFCALSEGYGNKLVFGAGTILRVKS
V domain 2: B16 V domain 2
notes: as for B3
B18: PN46880 (TCR, V domains shown)
V domain 1: AQRVTQPEKLLSVFKGAPVELKCNYSYSGSPELFWYVQYSRQRLQLLLRHISRESIKGFTADLNKGETSFHLKKPFAQEEDSAMYYCALSGASGGSYIPTFGRGTSLIVHP
V domain 2: B16 V domain 2
notes: as for B3
B19: PN46914 (TCR, V domains shown)
V domain 1: AQKVTQAQPEISVVEKEDVTLDCVYETRDTTYYLFWYKQPPSGELVFLIRRNSFDEQNEISGRYSWNFQKSTSSFNFTITASQVVDSAVYFCALSEGYNQGGKLIFGQGTELSVKP
V domain 2: DVKVTQSSRYLVKRTGEKVFLECVQDMDHENMFWYRQDPGLGLRLIYFSYDVKMKEKGDIPEGYSVSREKKERFSLILESASTNQTSMYLCASGADSNQPQHFGDGTRLSIL
notes: as for B3

Where a chain is given by its changes, count along the chain named.

In one assay the target is T1, soluble HLA:A2:PRAME (425-433) tetramer (human).
T1 construct: Commercial tetramer (MBL International); construct limits, biotin tag and streptavidin/fluorophore not described; also called PRAME/HLA tetramer reagent; PRAME (425-433)/HLA-A2
Nature of the assay: flow cytometry, soluble pMHC tetramer on CHO cells expressing the TCR.
On to B1, for which the “Cell Frequency ≥1000 MFI, ≥1% (% tetramer positive cells in the Ag+ gate)” value was 85.7%.

As to B2, the “Cell Frequency ≥1000 MFI, ≥1% (% tetramer positive cells in the Ag+ gate)” value is 62.2%.

Another assay addresses T2, peptide on HLA-A*02:01 (human).
T2 peptide: SLLMWITQC
Kind of assay: activation reporter or marker.
In the case of B1, the binding result is “no recognition”.

With B2, the binding result is “no recognition”.

Another assay deals with HLA-A2/PRAME (425-433) on HLA-A2*01 HEK293T cells pulsed with PRAME 425-433 peptide (human). Kind of assay: cell-based or functional assay.
For the molecule B1, the “EC50 (µM) of peptide, AP1 luciferase reporter in Jurkat cells expressing the TCR” value amounted to 0.261 µM.

Turning to B2, the “EC50 (µM) of peptide, AP1 luciferase reporter in Jurkat cells expressing the TCR” value worked out at 0.0336 µM.

The target in a further assay is T3, PRAME peptide on HLA-A*02:01 (human).
T3 peptide: SLLQHLIGL
Nature of the assay: multimer staining.
For the molecule B1, the binding result is given as “recognises”.

Turning to B2, the binding result is reported as “recognises”.

For another assay, the target named is T4, PRAME peptide on HLA-A*02:01 (human).
T4 peptide: RLDQLLRHV
Kind of assay: multimer staining.
Turning to B3, the binding result is “recognises”.

On to B4, for which the binding result is reported as “recognises”.

With B5, the binding result is “recognises”.

Consider B6, for which the binding result is given as “recognises”.

With B7, the binding result is “recognises”.

As for B8, the binding result is recorded as “recognises”.

B9: the binding result is listed as “recognises”.

Turning to B10, the binding result is “recognises”.

As for B11, the binding result was “recognises”.

Consider B12, for which the binding result was “recognises”.

Turning to B13, the binding result is listed as “recognises”.

As to B14, the binding result is listed as “recognises”.

Regarding B15, the binding result is listed as “recognises”.

As to B16, the binding result is listed as “recognises”.

As to B17, the binding result is recorded as “recognises”.

For the molecule B18, the binding result is “recognises”.

Consider B19, for which the binding result is “recognises”.

A further assay deals with T5, soluble HLA-A2:PRAME (312-320) tetramer (human).
T5 construct: Commercial tetramer (MBL International); construct limits, biotin tag and streptavidin/fluorophore not described; also called PRAME/HLA tetramer reagent
Nature of the assay: flow cytometry, soluble pMHC tetramer on CHO cells expressing the TCR.
Regarding B3, the “Cell Frequency ≥1000 MFI, ≥1% (% tetramer positive cells in the Ag+ gate)” value is 17.9%.

In the case of B4, the “Cell Frequency ≥1000 MFI, ≥1% (% tetramer positive cells in the Ag+ gate)” value came out at 87.9%.

Take B5: the “Cell Frequency ≥1000 MFI, ≥1% (% tetramer positive cells in the Ag+ gate)” value turned out to be 92.5%.

With B6, the “Cell Frequency ≥1000 MFI, ≥1% (% tetramer positive cells in the Ag+ gate)” value came out at 72.5%.

Consider B7, for which the “Cell Frequency ≥1000 MFI, ≥1% (% tetramer positive cells in the Ag+ gate)” value came out at 11%.

For the molecule B8, the “Cell Frequency ≥1000 MFI, ≥1% (% tetramer positive cells in the Ag+ gate)” value is 62.1%.

As for B9, the “Cell Frequency ≥1000 MFI, ≥1% (% tetramer positive cells in the Ag+ gate)” value came to 44.7%.

Take B10: the “Cell Frequency ≥1000 MFI, ≥1% (% tetramer positive cells in the Ag+ gate)” value was determined as 35.4%.

Regarding B11, the “Cell Frequency ≥1000 MFI, ≥1% (% tetramer positive cells in the Ag+ gate)” value is 15.7%.

B12: the “Cell Frequency ≥1000 MFI, ≥1% (% tetramer positive cells in the Ag+ gate)” value was found to be 52.6%.

On to B13, for which the “Cell Frequency ≥1000 MFI, ≥1% (% tetramer positive cells in the Ag+ gate)” value amounted to 98.9%.

Turning to B14, the “Cell Frequency ≥1000 MFI, ≥1% (% tetramer positive cells in the Ag+ gate)” value is 23%.

Take B15: the “Cell Frequency ≥1000 MFI, ≥1% (% tetramer positive cells in the Ag+ gate)” value was 57.3%.

In the case of B16, the “Cell Frequency ≥1000 MFI, ≥1% (% tetramer positive cells in the Ag+ gate)” value was 64.7%.

Take B17: the “Cell Frequency ≥1000 MFI, ≥1% (% tetramer positive cells in the Ag+ gate)” value is 53.9%.

On to B18, for which the “Cell Frequency ≥1000 MFI, ≥1% (% tetramer positive cells in the Ag+ gate)” value was found to be 31.9%.

For B19, the “Cell Frequency ≥1000 MFI, ≥1% (% tetramer positive cells in the Ag+ gate)” value worked out at 11.5%.

Source of the values: patent US20230060095A1 (Regeneron, published 2023).
